We go through one protein from article PMC13184981 (ACS Chemical Biology, 2026).

The data set deals with the molecule itself. As to the kind of experiment: mass photometry.

B1: Purified recombinant full-length LIMK1 (natural protein)
chain: MRLTLLCCTWREERMGEEGSELPVCASCGQRIYDGQYLQALNADWHADCFRCCDCSASLSHQYYEKDGQLFCKKDYWARYGESCHGCSEQITKGLVMVAGELKYHPECFICLTCGTFIGDGDTYTLVEHSKLYCGHCYYQTVVTPVIEQILPDSPGSHLPHTVTLVSIPASSHGKRGLSVSIDPPHGPPGCGTEHSHTVRVQGVDPGCMSPDVKNSIHVGDRILEINGTPIRNVPLDEIDLLIQETSRLLQLTLEHDPHDTLGHGLGPETSPLSSPAYTPSGEAGSSARQKPVLRSCSIDRSPGAGSLGSPASQRKDLGRSESLRVVCRPHRIFRPSDLIHGEVLGKGCFGQAIKVTHRETGEVMVMKELIRFDEETQRTFLKEVKVMRCLEHPNVLKFIGVLYKDKRLNFITEYIKGGTLRGIIKSMDSQYPWSQRVSFAKDIASGMAYLHSMNIIHRDLNSHNCLVRENKNVVVADFGLARLMVDEKTQPEGLRSLKKPDRKKRYTVVGNPYWMAPEMINGRSYDEKVDVFSFGIVLCEIIGRVNADPDYLPRTMDFGLNVRGFLDRYCPPNCPPSFFPITVRCCDLDPEKRPSFVKLEHWLETLRMHLAGHLPLGPQLEQLDRGFWETYRRGESGLPAHPEVPD
notes: source: insect cells, baculovirus, purified (Ni-NTA, SP Sepharose, TEV cleavage, SEC)
Broadly, the stoichiometry N is the number of molecules, sites or subunits per partner or assembly. For the protein B1, the “stoichiometry N” value turned out to be 2.
